Assay results as given in patent US6465188, “Nucleic acid ligand complexes” (Gilead Sciences, Inc.).

Biological target: VEGF (vascular endothelial growth factor) (UniProt P15692-4 P15692-4:27-191)
Test: competition; competition ELISA apparent ED50; reduction attributed to geometry of liposome display
Conditions: chain copies: 2

VEGF (vascular endothelial growth factor), sequence (P15692 other isoform, or with tags, fused parts or gaps): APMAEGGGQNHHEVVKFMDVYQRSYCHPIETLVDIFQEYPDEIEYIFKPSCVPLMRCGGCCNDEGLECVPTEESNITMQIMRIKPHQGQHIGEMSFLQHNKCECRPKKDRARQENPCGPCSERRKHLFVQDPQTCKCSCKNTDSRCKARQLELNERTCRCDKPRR

B1: NX278-Liposome (mixed)
mixed: TTTTACCCUGAUGGUAGACGCCGGGGUGTTTTT
modifications: 5'-dialkylglycerol (DAG), embedded in DSPC:cholesterol liposome; PS at 1-4 and 29-33; 2'-OMe at 5,13,16,17,20,23-26,28; 2'-NH2 at 6-9,12,15,19,21,22,27
  EC50: ~100 nM
